Literature values in PMC4384115, “Molecular Recognition of PTS-1 Cargo Proteins by Pex5p: Implications for Protein Mistargeting in Primary Hyperoxaluria” (Biomolecules, 2015).

Assays:
[1] = molecular target: L-Bifunctional enzyme PTS1 peptide (Homo sapiens)
[2] = molecular target: 3-Hydroxy-3-methylglutaryl-CoA lyase PTS1 peptide (Homo sapiens)
[3] = molecular target: Carnitine acyl-transferase 1 PTS1 peptide (Homo sapiens)

## Pex5p pbd (from UniProt P50542)
[1]
  Kd: 1100 nM
[2]
  Kd: 2000 nM
[3]
  Kd: 59 nM
